Test results from the supplement of paper PMC11246515.
± gives the standard deviation of the averaged measurements.

Assay: total protein half-life in vivo (active degradation + dilution); higher = more stable protein
[1] = E. coli NCM3722 delta-clpP delta-lon delta-hslV, growth: N-lim chemostat, doubling time 6 h
[2] = E. coli NCM3722 delta-clpP, growth: N-lim chemostat, doubling time 6 h
[3] = E. coli NCM3722 delta-lon, growth: N-lim chemostat, doubling time 6 h
[4] = E. coli NCM3722 delta-smpB, growth: N-lim chemostat, doubling time 6 h
[5] = wild type E. coli NCM3722, growth: C-lim chemostat, doubling time 3 h
[6] = wild type E. coli NCM3722, growth: C-lim chemostat, doubling time 6 h
[7] = wild type E. coli NCM3722, growth: C-lim chemostat, doubling time 12 h
[8] = wild type E. coli NCM3722, growth: N-lim chemostat, doubling time 6 h
[9] = wild type E. coli NCM3722, growth: N-lim chemostat, doubling time 12 h
[10] = wild type E. coli NCM3722, growth: P-lim chemostat, doubling time 6 h
[11] = wild type E. coli NCM3722, growth: P-lim chemostat, doubling time 12 h
[12] = E. coli NCM3722 delta-hslV, growth: N-lim chemostat, doubling time 6 h

With “MITVALIDDHLIVRSGFAQLLGLEPDLQVVAEFGSGREALAGLPGRGVQVCICDISMPDISGLELLSQLPKGMATIMLSVHDSPALVEQALNAGARGFLSKRCSPDELIAAVHTVATGGCYLTPDIAIKLASGRQDPLTKRERQVAEKLAQGMAVKEIAAELGLSPKTVHVHRANLMEKLGVSNDVELARRMFDGW [P0AGA6]” the “total protein half-life in vivo” value [1] was 5.29 ± 0.12 h, the “total protein half-life in vivo” value [2] was 4.19 ± 0.075 h and the “total protein half-life in vivo” value [3] was 4.25 ± 1.2 h. For the same sequence, the “total protein half-life in vivo” value [4] was 3.84 ± 0.34 h, the “total protein half-life in vivo” value [5] was 2.7 ± 0.14 h and the “total protein half-life in vivo” value [6] was 4.26 ± 1.2 h. For the same sequence, the “total protein half-life in vivo” value [7] was 8.86 ± 0.39 h, the “total protein half-life in vivo” value [8] was 4.01 ± 0.17 h and the “total protein half-life in vivo” value [9] was 6.351 ± 0.022 h. The “total protein half-life in vivo” value [10] was 4.35 ± 0.56 h and the “total protein half-life in vivo” value [11] was 7.3 ± 0.44 h.

In the case of “MIVISRHVAIPDGELEITAIRAQGAGGQHVNKTSTAIHLRFDIRASSLPEYYKERLLAASHHLISSDGVIVIKAQEYRSQELNREAALARLVAMIKELTTEKKARRPTRPTRASKERRLASKAQKSSVKAMRGKVRSGRE”, the “total protein half-life in vivo” value [2] is reported as 3.47 h, the “total protein half-life in vivo” value [12] is reported as 4.86 h and the “total protein half-life in vivo” value [3] is reported as 5 ± 0.37 h. For the same sequence, the “total protein half-life in vivo” value [4] was 4.58 h, the “total protein half-life in vivo” value [5] was 2.4 h and the “total protein half-life in vivo” value [6] was 4.63 h. The “total protein half-life in vivo” value [7] was 6.61 h, the “total protein half-life in vivo” value [8] was 4.19 h and the “total protein half-life in vivo” value [9] was 8.89 h. The “total protein half-life in vivo” value [10] was 4.91 h.

For “MIVKRPVSASLARAFFYIVLLSILSTGIALLTLASSLRDAEAINIAGSLRMQSYRLGYDLQSGSPQLNAHRQLFQQALHSPVLTNLNVWYVPEAVKTRYAHLNANWLEMNNRLSKGDLPWYQANINNYVNQIDLFVLALQHYAERKMLLVVAISLAGGIGIFTLVFFTLRRIRHQVVAPLNQLVTASQRIEHGQFDSPPLDTNLPNELGLLAKTFNQMSSELHKLYRSLEASVEEKTRDLHEAKRRLEVLYQCSQALNTSQIDVHCFRHILQIVRDNEAAEYLELNVGENWRISEGQPNPELPMQILPVTMQETVYGELHWQNSHVSSSEPLLNSVSSMLGRGLYFNQAQKHFQQLLLMEERATIARELHDSLAQVLSYLRIQLTLLKRSIPEDNATAQSIMADFSQALNDAYRQLRELLTTFRLTLQQADLPSALREMLDTLQNQTSAKLTLDCRLPTLALDAQMQVHLLQIIREAVLNAMKHANASEIAVSCVTAPDGNHTVYIRDNGIGIGEPKEPEGHYGLNIMRERAERLGGTLTFSQPSGGGTLVSISFRSAEGEESQLM”, the “total protein half-life in vivo” value [1] was 7.015 ± 0.027 h, the “total protein half-life in vivo” value [2] was 6.09 ± 0.081 h and the “total protein half-life in vivo” value [12] was 6.03 ± 0.085 h. The “total protein half-life in vivo” value [3] was 6.24 ± 0.29 h, the “total protein half-life in vivo” value [4] was 5.91 ± 0.37 h and the “total protein half-life in vivo” value [6] was 6.73 ± 0.72 h. For the same sequence, the “total protein half-life in vivo” value [7] was 12.6 ± 0.26 h, the “total protein half-life in vivo” value [8] was 6.0563 ± 0.0037 h and the “total protein half-life in vivo” value [10] was 5.97 ± 0.28 h. For the same sequence, the “total protein half-life in vivo” value [11] was 11.7 ± 2.1 h.

With “MIWIMLATLAVVFVVGFRVLTSGARKAIRRLSDRLNIDVVPVESMVDQMGKSAGDEFLRYLHRPDESHLQNAAQVLLIWQIVIVDGSEQNLLQWHRILQKARLAAPITDAQVRLALGFLRETEPEMQDINAFQMRYNAFFQPAEGVHWLH [P0ADL3]” the “total protein half-life in vivo” value [1] was 5.96 ± 1.4 h, the “total protein half-life in vivo” value [2] was 5.141 ± 0.016 h and the “total protein half-life in vivo” value [12] was 4.75 h. For the same sequence, the “total protein half-life in vivo” value [4] was 4.7 ± 0.11 h, the “total protein half-life in vivo” value [5] was 2.98 ± 0.21 h and the “total protein half-life in vivo” value [6] was 5.07 ± 0.086 h. For the same sequence, the “total protein half-life in vivo” value [7] was 10.9 ± 2.9 h, the “total protein half-life in vivo” value [8] was 4.71 h and the “total protein half-life in vivo” value [9] was 10.8 h. For the same sequence, the “total protein half-life in vivo” value [10] was 4.65 ± 0.24 h and the “total protein half-life in vivo” value [11] was 9.29 ± 1.7 h.

For “MKADNPFDLLLPAAMAKVAEEAGVYKATKHPLKTFYLAITAGVFISIAFVFYITATTGTGTMPFGMAKLVGGICFSLGLILCVVCGADLFTSTVLIVVAKASGRITWGQLAKNWLNVYFGNLVGALLFVLLMWLSGEYMTANGQWGLNVLQTADHKVHHTFIEAVCLGILANLMVCLAVWMSYSGRSLMDKAFIMVLPVAMFVASGFEHSIANMFMIPMGIVIRDFASPEFWTAVGSAPENFSHLTVMNFITDNLIPVTIGNIIGGGLLVGLTYWVIYLRENDHH [P0AC23]”, the “total protein half-life in vivo” value [1] was 6.43 ± 0.36 h, the “total protein half-life in vivo” value [2] was 7.27 ± 0.55 h and the “total protein half-life in vivo” value [3] was 5.87 ± 0.32 h. The “total protein half-life in vivo” value [4] was 6.66 ± 1.2 h, the “total protein half-life in vivo” value [5] was 3.67 h and the “total protein half-life in vivo” value [8] was 6.07 ± 0.59 h. For the same sequence, the “total protein half-life in vivo” value [9] was 11.5 ± 0.42 h and the “total protein half-life in vivo” value [10] was 6.402 ± 0.033 h.

For “MKAFWRNAALLAVSLLPFSSANALALQAKQYGDFDRYVLALSWQTGFCQSQHDRNRNERDECRLQTETTNKADFLTVHGLWPGLPKSVAARGVDERRWMRFGCATRPIPNLPEARASRMCSSPETGLSLETAAKLSEVMPGAGGRSCLERYEYAKHGACFGFDPDAYFGTMVRLNQEIKESEAGKFLADNYGKTVSRRDFDAAFAKSWGKENVKAVKLTCQGNPAYLTEIQISIKADAINAPLSANSFLPQPHPGNCGKTFVIDKAGY”, the “total protein half-life in vivo” value [1] was 5.86 ± 0.29 h, the “total protein half-life in vivo” value [12] was 6.73 ± 0.69 h and the “total protein half-life in vivo” value [3] was 6.91 ± 0.17 h. The “total protein half-life in vivo” value [4] was 5.96 ± 0.5 h, the “total protein half-life in vivo” value [5] was 2.91 ± 0.23 h and the “total protein half-life in vivo” value [6] was 6.59 ± 1.8 h. The “total protein half-life in vivo” value [8] was 5.72 ± 0.6 h, the “total protein half-life in vivo” value [9] was 12.8 ± 0.28 h and the “total protein half-life in vivo” value [10] was 5.74 ± 0.09 h.

For “MKALHFGAGNIGRGFIGKLLADAGIQLTFADVNQVVLDALNARHSYQVHVVGETEQVDTVSGVNAVSSIGDDVVDLIAQVDLVTTAVGPVVLERIAPAIAKGQVKRKEQGNESPLNIIACENMVRGTTQLKGHVMNALPEDAKAWVEEHVGFVDSAVDRIVPPSASATNDPLEVTVETFSEWIVDKTQFKGALPNIPGMELTDNLMAFVERKLFTLNTGHAITAYLGKLAGHQTIRDAILDEKIRAVVKGAMEESGAVLIKRYGFDADKHAAYIQKILGRFENPYLKDDVERVGRQPLRKLSAGDRLIKPLLGTLEYGLPHKNLIEGIAAAMHFRSEDDPQAQELAALIADKGPQAALAQISGLDANSEVVSEAVTAYKAMQ”, the “total protein half-life in vivo” value [1] was 5.84 ± 2 h, the “total protein half-life in vivo” value [2] was 4.85 ± 0.21 h and the “total protein half-life in vivo” value [12] was 5.32 ± 0.44 h. The “total protein half-life in vivo” value [3] was 4.91 ± 0.1 h, the “total protein half-life in vivo” value [4] was 4.6 ± 0.39 h and the “total protein half-life in vivo” value [6] was 6.18 ± 0.63 h. The “total protein half-life in vivo” value [7] was 10.8 ± 1.2 h, the “total protein half-life in vivo” value [8] was 4.86 ± 0.35 h and the “total protein half-life in vivo” value [9] was 8.39 ± 0.13 h. The “total protein half-life in vivo” value [10] was 6.02 ± 0.068 h and the “total protein half-life in vivo” value [11] was 11.6 ± 0.34 h.
